Results published in article doi:10.1101/2019.12.17.868638.

Target: Rl-SRDI565 sulfoquinovosidase, K375A/K376A variant (RlSQase*) (Rhizobium leguminosarum bv. trifolii SRDI565)
Test: SEC-MALS

Rl-SRDI565 sulfoquinovosidase, K375A/K376A variant (RlSQase*) (enzyme)
stoichiometry N: 2
